Columns and labels:
mouse albumin = assay: Indel analysis (nuclease activity) in livers of mice injected intravenously with ZFN mRNA LNPs; format: in vivo; settings: 48641/31523 mRNA LNP (II-9), single dose 2 mg/kg; FIG. 4B
Experimental: 8-10 week old C57BL6 purchased from Charles River were injected intravenously through the tail vein with 200 uL of an aqueous solution containing diluted LNPs or a mixture of diluted LNPs and AAV donor encoding a human IDS or human FIX transgene containing homology arms flanking the ZFN cut site and a splice acceptor just upstream of the coding sequence of the transgene. Some animals were injected with 5 mg/kg dexamethasone intraperitoneally 30 minutes prior to LNP dosing. Animals were then sacrificed 7 days post LNP dosing or re-dosed with LNPs at either a 7 or 14 day interval before subsequent sacrifice and harvesting of liver tissue. Livers were snap frozen and a small portion of both the left and right lobes were dissected and harvested for gDNA using a FastPrep-24 Homogenizer (MP Biomedicals), Lysis Matrix D solution (MP Biomedicals), and a MasterPure DNA Purification kit (Epicentre).
Primers were designed to amplify approximately 200 bp of total genomic DNA sequence containing the ZFN cut site. Amplicons were then ran on either a Miseq or Nextseq (Illumina) and insertions and deletions (indels) from the wildtype genomic sequence were quantified.
To test the ability of targeted zinc finger nucleases to cleave a site in the mouse genome in vivo, mRNAs encoding albumin specific nucleases were incorporated into LNPs as described above using the cationic lipid I-6. […]

[1] = tested on: ZFN 48641 (mALB) (synthetic); assay: cell_activity; settings: pair with 31523; mouse liver after third 2 mg/kg LNP dose
[2] = tested on: ZFN 31523 (mALB) (synthetic); assay: cell_activity; settings: pair with 48641; mouse liver after third 2 mg/kg LNP dose

Molecule: C[C@H]1C[C@@H]2[C@H]([C@@H](O)C[C@@]3(C)[C@H]2CC[C@]3(O)C(=O)COC(=O)CCC(=O)[O-])[C@@]2(C)C=CC(=O)C=C12.[Na+] [Solumedrol®, methylprednisolone sodium succinate]
- nuclease activity, dexamethasone pretreatment vs Solumedrol pretreatment plus 3 days (mouse albumin): slightly more efficacious

Molecule: CTGAAGGTGGCAATGGTTCCTCTCTGCT (double strand) [mouse ALB intron 1 left half-site]
- activity [1]: 25 % indels

Molecule: TTTCCTGTAACGATCGGGAACTGGCATC (double strand) [mouse ALB intron 1 right half-site]
- activity [2]: 25 % indels

Reference: patent publication US20180185516A1, “DELIVERY OF TARGET SPECIFIC NUCLEASES” (Sangamo Therapeutics, Inc., priority 2016, published 2018)
